Paper PMC9428257

Molecular target: T1, human APRIL (a proliferation-inducing ligand) (human), O75888
T1 chain: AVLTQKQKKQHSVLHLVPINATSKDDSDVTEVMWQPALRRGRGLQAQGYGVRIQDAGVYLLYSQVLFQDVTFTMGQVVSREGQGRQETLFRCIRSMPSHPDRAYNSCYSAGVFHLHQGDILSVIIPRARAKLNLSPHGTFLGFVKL
Test: FACS
Conditions: domain or fragment; chains chain; remark: other sources report otherwise

B1: yeast-displayed wild-type sBCMA (human BCMA extracellular domain, Met1-Ala54), Q02223 1-54 (protein)
chain: MLQMAGQCSQNEYFDSLLHACIPCQLRCSSNTPPLTCQRYCNASVTNSVKGTNA
Q: B1 was tested. Which Kd did it give?
A: The Kd was 0.025 nM.
